Tests used:
human CD40 on cells [1] = molecular target: T1, human CD40 on cells (human, UniProt P25942 21-277); assay: cell-based or functional assay
human CD40 on cells [2] = molecular target: T1, human CD40 on cells; assay: cell-based or functional assay; remark: listed apart in the source
human CD40 on cells [3] = molecular target: T1, human CD40 on cells; assay: cell-based or functional assay; remark: listed apart in the source
human CD40 on cells [4] = molecular target: T1, human CD40 on cells; assay: cell-based or functional assay; remark: listed apart in the source
human CD40 on cells [5] = molecular target: T1, human CD40 on cells; assay: flow cytometry on Raji cells
Procedure: (§1) Briefly, Raji cells were seeded in 96-well plates at 1.0×10⁵ cells/well and incubated with serially-diluted test antibodies for 60 minutes at 4° C. in 2% FBS/dPBS buffer. The cells were then washed twice with dPBS and further incubated with secondary allophycocyanin (APC)-conjugated AffiniPure F(ab′)₂ fragment donkey anti-human IgG (H+L) antibody (Jackson ImmunoResearch, Ref. 709-136-149) (1:500) for 30 minutes at 4° C. Finally, the cells were washed twice with dPBS and suspended in FACS buffer for flow cytometry analysis. MFI values vs concentrations were analyzed by FlowJo and data were further fitted with four-parameter non-linear regression to get EC₅₀ values by GraphPad Prism software.

human CD40 on cells [6] = molecular target: T1, human CD40 on cells; assay: flow cytometry on U-2 OS/NFκB cells
Procedure: as §1, with “cultured U-2 OS/NFκB” for “Raji”

human CD40 on cells [7] = molecular target: T1, human CD40 on cells; assay: flow cytometry on Raji cells; EC50 relative to mAb1
Procedure: as §1

human CD40 on cells [8] = molecular target: T1, human CD40 on cells; assay: flow cytometry on U-2 OS/NFκB cells; EC50 relative to mAb1
Procedure: as §1, with “cultured U-2 OS/NFκB” for “Raji”

T1 sequence (P25942 21-277 limits assumed): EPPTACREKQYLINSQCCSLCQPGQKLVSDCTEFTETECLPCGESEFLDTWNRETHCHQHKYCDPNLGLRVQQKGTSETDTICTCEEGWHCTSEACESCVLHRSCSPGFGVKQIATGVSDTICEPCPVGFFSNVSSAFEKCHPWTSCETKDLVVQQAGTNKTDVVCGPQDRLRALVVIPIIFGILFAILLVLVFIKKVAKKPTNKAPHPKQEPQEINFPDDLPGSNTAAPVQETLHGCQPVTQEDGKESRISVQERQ

Row | EC50, luciferase reporter assay in U-2 OS/NFκB cells (human CD40 on cells [1]) [nM] | Relative masking efficacy, luciferase reporter assay in U-2 OS/NFκB cells (human CD40 on cells [1]) [fold] | EC50, CD86 expression, primary human B-cell activation assay (human CD40 on cells [2]) [nM] | Relative masking efficacy, CD86 expression, primary human B-cell activation assay (human CD40 on cells [2]) [fold] | EC50, CD83 expression, B-cells of hCD40 KI mice (human CD40 on cells [3]) [nM] | EC50, CD86 expression, B-cells of hCD40 KI mice (human CD40 on cells [3]) [nM] | Relative masking efficacy, CD83 expression, B-cells of hCD40 KI mice (human CD40 on cells [3]) [fold] | Relative masking efficacy, CD86 expression, B-cells of hCD40 KI mice (human CD40 on cells [3]) [fold] | EC50, CD83 expression, MoDC maturation assay (human CD40 on cells [4]) [nM] | EC50, IL-8 release, MoDC maturation assay (human CD40 on cells [4]) [nM] | EC50 (human CD40 on cells [5]) [nM] | EC50 (human CD40 on cells [6]) [nM] | Relative masking efficacy (human CD40 on cells [7]) [fold] | Relative masking efficacy (human CD40 on cells [8]) [fold] | Binder
1 | 179 | 753 | 40.3 | 231 | 6.7 | 3.57 | 131 | 115 | 56.5 | 19.5 | 476 | 330 | 355 | 220 | MC1 (masked mAb1 comprising MM1 and CL1) (antibody, human IgG2, kappa, Conditionally-active (masked) antibody) heavy: QVQLVQSGAEVKKPGASVKVSCKASGYTFTGKYMHWVRQAPGQGLEWMGWINPDSGGTNYAQKFQGRVTMTRDTSIATAYMELNRLRSDDTAVYYCARDQPLGYCTNGVCSYFDYWGQGTLVTVSSASTKGPSVFPLAPCSRSTSESTAALGCLVKDYFPEPVTVSWNSGALTSGVHTFPAVLQSSGLYSLSSVVTVPSSNFGTQTYTCNVDHKPSNTKVDKTVERKCCVECPPCPAPPVAGPSVFLFPPKPKDTLMISRTPEVTCVVVDVSHEDPEVQFNWYVDGVEVHNAKTKPREEQFNSTFRVVSVLTVVHQDWLNGKEYKCKVSNKGLPAPIEKTISKTKGQPREPQVYTLPPSREEMTKNQVSLTCLVKGFYPSDIAVEWESNGQPENNYKTTPPMLDSDGSFFLYSKLTVDKSRWQQGNVFSCSVMHEALHNHYTQKSLSLSPGK light: EDEPGIRCYYNDDTCQYGGGPLGLAGSGGSDIQMTQSPSSVSASVGDRVTITCRASQGIYSWLAWYQQKPGKAPNLLIYTASTLQSGVPSRFSGSGSGTDFTLTISSLQPEDFATYYCQQANIFPLTFGGGTKVEIKRTVAAPSVFIFPPSDEQLKSGTASVVCLLNNFYPREAKVQWKVDNALQSGNSQESVTEQDSKDSTYSLSSTLTLSKADYEKHKVYACEVTHQGLSSPVTKSFNRGEC
2 | 0.362 | 1.5 | 0.134 | 0.77 |  |  |  |  |  |  | 2.01 | 2.52 | 1.5 | 1.7 | uPA-activated (MC3/MC4) (antibody, not shown: small tags and cut ends, Masked compound with CL2 (MC3 or MC4, printed 'MC3/MC4') after cleavage of the masking moiety by recombinant human uPA) heavy: QVQLVQSGAEVKKPGASVKVSCKASGYTFTGKYMHWVRQAPGQGLEWMGWINPDSGGTNYAQKFQGRVTMTRDTSIATAYMELNRLRSDDTAVYYCARDQPLGYCTNGVCSYFDYWGQGTLVTVSSASTKGPSVFPLAPCSRSTSESTAALGCLVKDYFPEPVTVSWNSGALTSGVHTFPAVLQSSGLYSLSSVVTVPSSNFGTQTYTCNVDHKPSNTKVDKTVERKCCVECPPCPAPPVAGPSVFLFPPKPKDTLMISRTPEVTCVVVDVSHEDPEVQFNWYVDGVEVHNAKTKPREEQFNSTFRVVSVLTVVHQDWLNGKEYKCKVSNKGLPAPIEKTISKTKGQPREPQVYTLPPSREEMTKNQVSLTCLVKGFYPSDIAVEWESNGQPENNYKTTPPMLDSDGSFFLYSKLTVDKSRWQQGNVFSCSVMHEALHNHYTQKSLSLSPGK light: DIQMTQSPSSVSASVGDRVTITCRASQGIYSWLAWYQQKPGKAPNLLIYTASTLQSGVPSRFSGSGSGTDFTLTISSLQPEDFATYYCQQANIFPLTFGGGTKVEIKRTVAAPSVFIFPPSDEQLKSGTASVVCLLNNFYPREAKVQWKVDNALQSGNSQESVTEQDSKDSTYSLSSTLTLSKADYEKHKVYACEVTHQGLSSPVTKSFNRGEC
3 | 108 | 457 | 27.9 | 158 | 2.84 | 2.01 | 55.7 | 64.9 | 27.4 | 13.3 | 388 | 197 | 289 | 131 | MC3 (masked mAb1 comprising MM1 and CL2) (antibody, human IgG2, kappa, Conditionally-active (masked) antibody) heavy: QVQLVQSGAEVKKPGASVKVSCKASGYTFTGKYMHWVRQAPGQGLEWMGWINPDSGGTNYAQKFQGRVTMTRDTSIATAYMELNRLRSDDTAVYYCARDQPLGYCTNGVCSYFDYWGQGTLVTVSSASTKGPSVFPLAPCSRSTSESTAALGCLVKDYFPEPVTVSWNSGALTSGVHTFPAVLQSSGLYSLSSVVTVPSSNFGTQTYTCNVDHKPSNTKVDKTVERKCCVECPPCPAPPVAGPSVFLFPPKPKDTLMISRTPEVTCVVVDVSHEDPEVQFNWYVDGVEVHNAKTKPREEQFNSTFRVVSVLTVVHQDWLNGKEYKCKVSNKGLPAPIEKTISKTKGQPREPQVYTLPPSREEMTKNQVSLTCLVKGFYPSDIAVEWESNGQPENNYKTTPPMLDSDGSFFLYSKLTVDKSRWQQGNVFSCSVMHEALHNHYTQKSLSLSPGK light: EDEPGIRCYYNDDTCQYSGRSAGGGGPLGLAGSGGSDIQMTQSPSSVSASVGDRVTITCRASQGIYSWLAWYQQKPGKAPNLLIYTASTLQSGVPSRFSGSGSGTDFTLTISSLQPEDFATYYCQQANIFPLTFGGGTKVEIKRTVAAPSVFIFPPSDEQLKSGTASVVCLLNNFYPREAKVQWKVDNALQSGNSQESVTEQDSKDSTYSLSSTLTLSKADYEKHKVYACEVTHQGLSSPVTKSFNRGEC
4 | 113 | 477 | 28.5 | 176 | 2.31 | 1.46 | 45.2 | 47.2 | 33.1 | 15.1 | 488 | 317 | 364 | 211 | MC2 (masked mAb1 comprising MM2 and CL1) (antibody, human IgG2, kappa, Conditionally-active (masked) antibody) heavy: QVQLVQSGAEVKKPGASVKVSCKASGYTFTGKYMHWVRQAPGQGLEWMGWINPDSGGTNYAQKFQGRVTMTRDTSIATAYMELNRLRSDDTAVYYCARDQPLGYCTNGVCSYFDYWGQGTLVTVSSASTKGPSVFPLAPCSRSTSESTAALGCLVKDYFPEPVTVSWNSGALTSGVHTFPAVLQSSGLYSLSSVVTVPSSNFGTQTYTCNVDHKPSNTKVDKTVERKCCVECPPCPAPPVAGPSVFLFPPKPKDTLMISRTPEVTCVVVDVSHEDPEVQFNWYVDGVEVHNAKTKPREEQFNSTFRVVSVLTVVHQDWLNGKEYKCKVSNKGLPAPIEKTISKTKGQPREPQVYTLPPSREEMTKNQVSLTCLVKGFYPSDIAVEWESNGQPENNYKTTPPMLDSDGSFFLYSKLTVDKSRWQQGNVFSCSVMHEALHNHYTQKSLSLSPGK light: EVGSYYVCPVRFQYFCEEGGGPLGLAGSGGSDIQMTQSPSSVSASVGDRVTITCRASQGIYSWLAWYQQKPGKAPNLLIYTASTLQSGVPSRFSGSGSGTDFTLTISSLQPEDFATYYCQQANIFPLTFGGGTKVEIKRTVAAPSVFIFPPSDEQLKSGTASVVCLLNNFYPREAKVQWKVDNALQSGNSQESVTEQDSKDSTYSLSSTLTLSKADYEKHKVYACEVTHQGLSSPVTKSFNRGEC
5 | 0.261 | 1.1 | 0.114 | 0.65 |  |  |  |  |  |  | 1.46 | 1.94 | 1.1 | 1.3 | MMP9-activated (MC1/MC2) (antibody, not shown: small tags and cut ends) heavy: QVQLVQSGAEVKKPGASVKVSCKASGYTFTGKYMHWVRQAPGQGLEWMGWINPDSGGTNYAQKFQGRVTMTRDTSIATAYMELNRLRSDDTAVYYCARDQPLGYCTNGVCSYFDYWGQGTLVTVSSASTKGPSVFPLAPCSRSTSESTAALGCLVKDYFPEPVTVSWNSGALTSGVHTFPAVLQSSGLYSLSSVVTVPSSNFGTQTYTCNVDHKPSNTKVDKTVERKCCVECPPCPAPPVAGPSVFLFPPKPKDTLMISRTPEVTCVVVDVSHEDPEVQFNWYVDGVEVHNAKTKPREEQFNSTFRVVSVLTVVHQDWLNGKEYKCKVSNKGLPAPIEKTISKTKGQPREPQVYTLPPSREEMTKNQVSLTCLVKGFYPSDIAVEWESNGQPENNYKTTPPMLDSDGSFFLYSKLTVDKSRWQQGNVFSCSVMHEALHNHYTQKSLSLSPGK light: DIQMTQSPSSVSASVGDRVTITCRASQGIYSWLAWYQQKPGKAPNLLIYTASTLQSGVPSRFSGSGSGTDFTLTISSLQPEDFATYYCQQANIFPLTFGGGTKVEIKRTVAAPSVFIFPPSDEQLKSGTASVVCLLNNFYPREAKVQWKVDNALQSGNSQESVTEQDSKDSTYSLSSTLTLSKADYEKHKVYACEVTHQGLSSPVTKSFNRGEC

— patent US20240279350A1 (Sanofi, published 2024)
